This is an account of results in PMC5717197, “Mechanistic insight into TRIP13-catalyzed Mad2 structural transition and spindle checkpoint silencing” (Nature Communications, 2017).

Data set [1] concerns the molecule itself. The data set is described as follows: SEC; gel filtration column in the presence of ATP.
Data set [2] has as its target T1, His6-Mad2 (containing the C79S and C106S mutations) (human, UniProt Q13257 1-205, C79S | C106S).
T1 construct: Mad2, human; C79S and C106S to avoid disulfide formation in vitro; The His6 tag was not cleaved; also called C-Mad2; source: E. coli BL21 (DE3), purified (Ni-NTA, Resource Q, Superdex 200 Increase); not shown: His6, N-terminal, kept
In words: pull-down; Mad2 dissociation assay: MBP1 or Cdc20N coupled to SulfoLink resin, loaded with His6-Mad2 (0.5 mg/ml), washed, then TRIP13 and ΔN35-p31comet with 1 mM ATP for 30-60 min; Reaction Buffer (25 mM Tris pH 7.5, 200 mM NaCl, 10 mM MgCl2, 1 mM DTT, 5% glycerol, 0.05% Tween), room temperature; bound proteins by SDS-PAGE and Coomassie. Particulars: both partners purified.

T1 sequence (Q13257 whole entry C79S/C106S): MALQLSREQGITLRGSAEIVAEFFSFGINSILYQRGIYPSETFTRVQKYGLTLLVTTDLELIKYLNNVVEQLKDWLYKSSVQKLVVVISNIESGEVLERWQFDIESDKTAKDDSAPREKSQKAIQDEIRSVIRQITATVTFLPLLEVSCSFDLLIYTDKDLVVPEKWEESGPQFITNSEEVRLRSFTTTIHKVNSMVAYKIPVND

B1: TRIP13 wild type (enzyme, human, UniProt Q15645 1-432, looked up)
chain: MDEAVGDLKQALPCVAESPTVHVEVHQRGSSTAKKEDINLSVRKLLNRHNIVFGDYTWTEFDEPFLTRNVQSVSIIDTELKVKDSQPIDLSACTVALHIFQLNEDGPSSENLEEETENIIAANHWVLPAAEFHGLWDSLVYDVEVKSHLLDYVMTTLLFSDKNVNSNLITWNRVVLLHGPPGTGKTSLCKALAQKLTIRLSSRYRYGQLIEINSHSLFSKWFSESGKLVTKMFQKIQDLIDDKDALVFVLIDEVESLTAARNACRAGTEPSDAIRVVNAVLTQIDQIKRHSNVVILTTSNITEKIDVAFVDRADIKQYIGPPSAAAIFKIYLSCLEELMKCQIIYPRQQLLTLRELEMIGFIENNVSKLSLLLNDISRKSEGLSGRVLRKLPFLAHALYVQAPTVTIEGFLQALSLAVDKQFEERKKLAAYI
notes: TRIP13, human; its own AUC and gel filtration show no discrete oligomer; also called TRIP13 WT; source: E. coli BL21 (DE3), purified (Ni-NTA, TEV, Resource Q, Superdex 200); not shown: His6, N-terminal, cleaved
Regarding B1, the binding result in data set [1] is on record as “binds”.

B2: TRIP13 G320A (enzyme, human, UniProt Q15645 1-432, looked up)
chain: MDEAVGDLKQALPCVAESPTVHVEVHQRGSSTAKKEDINLSVRKLLNRHNIVFGDYTWTEFDEPFLTRNVQSVSIIDTELKVKDSQPIDLSACTVALHIFQLNEDGPSSENLEEETENIIAANHWVLPAAEFHGLWDSLVYDVEVKSHLLDYVMTTLLFSDKNVNSNLITWNRVVLLHGPPGTGKTSLCKALAQKLTIRLSSRYRYGQLIEINSHSLFSKWFSESGKLVTKMFQKIQDLIDDKDALVFVLIDEVESLTAARNACRAGTEPSDAIRVVNAVLTQIDQIKRHSNVVILTTSNITEKIDVAFVDRADIKQYIAPPSAAAIFKIYLSCLEELMKCQIIYPRQQLLTLRELEMIGFIENNVSKLSLLLNDISRKSEGLSGRVLRKLPFLAHALYVQAPTVTIEGFLQALSLAVDKQFEERKKLAAYI
notes: TRIP13, human; source: E. coli BL21 (DE3), purified (Ni-NTA, TEV, Resource Q, Superdex 200); not shown: His6, N-terminal, cleaved
Take B2: the binding result in data set [1] is “binds”.

B3: MBP1 peptide (peptide)
peptide: SWYSYPPPQRAVC
notes: Coupled to SulfoLink Coupling Resin in the bead assays; source: synthetic peptide (Protein Chemistry Technology Core, UTSW)
In the case of B3, in data set [2], the binding result is “binds”.

B4: Cdc20N-His6 (residues 1-170 of human Cdc20) (domain or fragment, UniProt Q12834 1-170, looked up)
chain: MAQFAFESDLHSLLQLDAPIPNAPPARWQRKAKEAAGPAPSPMRAANRSHSAGRTPGRTPGKSSSKVQTTPSKPGGDRYIPHRSAAQMEVASFLLSKENQPENSQTPTKKEHQKAWALNLNGFDVEEAKILRLSGKPQNAPEGYQNRLKVLYSQKATPGSSRKTCRYIPS
notes: Cdc20, human, residues 1-170; Coupled to SulfoLink Coupling Resin in the bead assays; also called Cdc20 N-terminal 170-residue fragment; source: E. coli BL21 (DE3), purified from 8 M urea (Ni-NTA), dialysed
As to B4, in data set [2], the binding result is reported as “binds”.
